According to patent publication US20110082421A1:

Experiments:
[1] = molecular target: AGE-modified bovine serum albumin (AGE-BSA), prepared by incubating BSA in 1.67 M glucose for two months (bovine) (UniProt P02769); assay: FIG. 1C initial capacity before storage in 20% ethanol; batch adsorption, competitive ELISA
[2] = molecular target: AGE-modified bovine serum albumin (AGE-BSA), prepared by incubating BSA in 1.67 M glucose for two months (bovine) (UniProt P02769); assay: FIG. 1D final capacity after 6 cycles of regeneration, ethanol storage and 4 h at 37 C (RET); batch adsorption, competitive ELISA
[3] = molecular target: AGE-modified bovine serum albumin (AGE-BSA), prepared by incubating BSA in 1.67 M glucose for two months (bovine) (UniProt P02769); assay: FIG. 1D RE series, after processing cycles
[4] = molecular target: AGE-modified bovine serum albumin (AGE-BSA), prepared by incubating BSA in 1.67 M glucose for two months (bovine) (UniProt P02769); assay: FIG. 1D initial capacity of the RET series; batch adsorption, competitive ELISA
[5] = molecular target: AGE-modified bovine serum albumin (AGE-BSA), prepared by incubating BSA in 1.67 M glucose for two months (bovine) (UniProt P02769); assay: FIG. 1D final capacity after cycles of regeneration and ethanol storage (RE), 1 h at 37 C; batch adsorption, competitive ELISA
[6] = molecular target: AGE-modified bovine serum albumin (AGE-BSA), prepared by incubating BSA in 1.67 M glucose for two months (bovine) (UniProt P02769); assay: FIG. 1A thermal stability, initial capacity (1 h at 37 C); batch adsorption, competitive ELISA
[7] = molecular target: AGE-modified bovine serum albumin (AGE-BSA), prepared by incubating BSA in 1.67 M glucose for two months (bovine) (UniProt P02769); assay: FIG. 1D initial capacity of the RE series; batch adsorption, competitive ELISA
[8] = molecular target: AGE-modified bovine serum albumin (AGE-BSA), prepared by incubating BSA in 1.67 M glucose for two months (bovine) (UniProt P02769); assay: FIG. 1A thermal stability, final capacity (4 h at 37 C); batch adsorption, competitive ELISA
[9] = molecular target: AGE-modified bovine serum albumin (AGE-BSA), prepared by incubating BSA in 1.67 M glucose for two months (bovine) (UniProt P02769); assay: FIG. 1C final capacity after 34 days in 20% ethanol at 4 C; batch adsorption, competitive ELISA
[10] = molecular target: AGE-modified bovine serum albumin (AGE-BSA), prepared by incubating BSA in 1.67 M glucose for two months (bovine) (UniProt P02769); assay: FIG. 1D RET series, after 6 processing cycles

Sequence of AGE-modified bovine serum albumin (AGE-BSA), prepared by incubating BSA in 1.67 M glucose for two months (bovine) (P02769 25-607 limits assumed): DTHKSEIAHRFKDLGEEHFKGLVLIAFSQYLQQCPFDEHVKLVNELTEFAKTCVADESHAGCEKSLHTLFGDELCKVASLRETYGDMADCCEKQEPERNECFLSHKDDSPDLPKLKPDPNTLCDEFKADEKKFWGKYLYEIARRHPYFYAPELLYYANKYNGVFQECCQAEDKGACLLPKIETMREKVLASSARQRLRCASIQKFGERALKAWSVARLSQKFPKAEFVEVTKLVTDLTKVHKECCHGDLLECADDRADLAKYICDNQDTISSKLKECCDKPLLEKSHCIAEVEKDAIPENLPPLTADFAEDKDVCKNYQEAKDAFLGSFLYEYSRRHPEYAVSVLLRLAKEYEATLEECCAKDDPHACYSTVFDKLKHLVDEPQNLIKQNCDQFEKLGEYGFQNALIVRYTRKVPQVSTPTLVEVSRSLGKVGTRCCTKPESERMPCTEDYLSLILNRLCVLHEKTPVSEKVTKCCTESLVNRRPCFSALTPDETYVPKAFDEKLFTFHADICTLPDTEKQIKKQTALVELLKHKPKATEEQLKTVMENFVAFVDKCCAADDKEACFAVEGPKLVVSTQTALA

binding capacity (mg AGE-BSA/ml RAGE gel) [1]: 0.6
binding capacity (mg AGE-BSA/ml RAGE gel) [2]: 0.79
decrease of binding capacity against the initial value [3]: 10%
binding capacity (mg AGE-BSA/ml RAGE gel) [4]: 0.94
binding capacity (mg AGE-BSA/ml RAGE gel) [5]: 0.82
binding capacity (mg AGE-BSA/ml RAGE gel) [6]: 0.92
binding capacity (mg AGE-BSA/ml RAGE gel) [7]: 0.92
binding capacity (mg AGE-BSA/ml RAGE gel) [8]: 0.94
binding capacity (mg AGE-BSA/ml RAGE gel) [9]: 0.57
decrease of binding capacity against the initial binding capacity [10]: 16%
Substance: RAGE-His construct (extracellular region of human RAGE, amino acid residues 23 through 340, with C-terminal six-histidine tag), immobilized on agarose (from UniProt Q15109 23-340) (receptor)
